Reference: patent US20230174641A1 (H LUNDBECK A S, published 2023)
Positions count from the first letter of the chain named. Blank lines part the entries; values can stand above or below the binder they belong to. Ends that are not written are not given here.

What was measured:
human ACTH 1-39 [1] = target: T1, human ACTH 1-39 (human); assay: cell-based or functional assay
T1 peptide: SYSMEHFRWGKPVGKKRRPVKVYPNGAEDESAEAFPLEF

human ACTH 1-39 [2] = target: T1, human ACTH 1-39; assay: cell-based or functional assay
human ACTH 18-39 = target: T2, human ACTH 18-39 (human); assay: SPR ProteOn, antibody immobilised
T2 construct: also called CLIP; CLIP (ACTH 18-39)
T2 peptide: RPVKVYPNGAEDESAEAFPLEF
Description: (§1) Antibody was immobilized to the surface of general amine coupling (GLC or GLM) Chips (Bio-Rad). […] At the chosen concentrations of antigen (ranging from 454 ng/ml to 5.6 ng/ml) association times of 200 seconds and dissociation times of 30-200 minutes were used with the ProteOnTM Manager Software (v3.1.0.6, Bio-Rad) to group and fit data using a 1:1 Langmuir binding model. Surfaces were regenerated between analyte queries using 10 mM glycine at pH 2.0. Data repeated across a single density was averaged and a single KD and standard propagation of error calculated for each antibody.

[3] = target: T3, N-term biotinylated human ACTH 1-39 (human, N-terminal biotin); assay: ELISA, biotin-ACTH 1-39 on neutravidin plate
T3 construct: also called huACTH 1-39
T3 peptide: T1 peptide
Description: All incubations were done at room temperature. […] The plates were then blocked using a blocking solution (PBS, 0.5% fish skin gelatin, 0.05% Tween-20) for approximately one hour. The blocking solution was then removed and the plates were then incubated with a dilution series of the antibody being tested for approximately one hour. At the end of this incubation, the plate was washed three times with wash buffer and further incubated with a secondary antibody containing solution (Peroxidase conjugated AffmiPure™ F(ab′)₂ fragment goat anti-human IgG, Fc fragment specific (Jackson Immunoresearch) for approximately 45 minutes and washed three times. Next a substrate solution (TMB peroxidase substrate, BioFx®, SurModics, Eden Prairie, Minn.) was added and incubated for 3 to 5 minutes in the dark. The reaction was stopped by addition of 0.5 M HCl and the plate was read at 450 nm in a plate-reader.

human ACTH 1-13 = target: T4, human ACTH 1-13 (human, ends and bridges not checked); assay: SPR ProteOn, antibody immobilised; SPR, antibody on the chip, alpha-MSH alone (Table 6)
T4 construct: also called human alpha-MSH (ACTH 1-13); alpha-MSH
T4 peptide: SYSMEHFRWGKPV
Description: as §1

B2: Ab2.H (antibody, human IgG1, kappa, N297A, V domains shown)
VH: EVQLVESGGGLVQPGGSLRLSCAASGFTVSKYDMIWVRQAPGKGLESIGIIYDDGDTYYASSAKGRFTISRDNSKNTLYLQMNSLRAEDTAVYYCVKGVSNIWGQGTLVTVSS
VL: DIQMTQSPSTLSASVGDRVTITCQASQSISNYLAWYQQKPGKAPKLLIYSASTLASGVPSRFSGSGSGTEFTLTISSLQPDDFATYYCQSYEGSSSSSYGVGFGGGTKVEIKR
notes: humanized form of Ab2
Kd (human ACTH 18-39): 28 nM

B4: Ab1.H (antibody, human IgG1, kappa, N297A, V domains shown)
VH: B2 VH with K31N, I50M, I102H
VL: B2 VL with N31S, E92D, S96G
notes: humanized form of Ab1
Kd (human ACTH 18-39): 20 nM

B5: Ab4.H (antibody, human IgG1, kappa, N297A, V domains shown)
VH: B2 VH with Y32H, S61N
VL: B2 VL with Q24R, N31V, S50Q, T53K, E92D
notes: humanized form of Ab4
Kd (human ACTH 18-39): 92 nM

More lines, now with the values ahead:

MC2R IC50 (human ACTH 1-39 [1]): 0.12 nM | Y1 Cells IC50 (human ACTH 1-39 [2]): 3.47 nM | koff (human ACTH 18-39): > 0.1 s⁻¹ | EC50 [3]: 2.05 nM | Kd (human ACTH 1-13): 63 nM | koff (human ACTH 1-13): 0.009 s⁻¹ | kon (human ACTH 1-13): ~140000 M⁻¹ s⁻¹
B1: Ab9 (antibody, human IgG1, kappa, N297A, V domains shown)
VH: QSVEESGGRLVTPGTPLTLTCTVSGFSLNSYAMSWVRQAPGEGLEWIGIISDSGRTYYASWAKGRFTISKTSTTVDLKITSPTTEDTATYFCAREPEYGYDDYGDWVSDLWGPGTLVTVSS
VL: DVVMTQTPASVEAAVGGTVTIKCQASQSISSYLSWYQQKPGQPPKLLIYRASTLASGVPSRFKGSGSGTQFTLTISDLECADAATYYCQSYYYSSSITYRNAFGGGTEVVVKR
notes: rabbit/human chimeric antibody, made in HEK-293

Kd (human ACTH 18-39): 20 nM
B3: Ab11A.H (antibody, human IgG1, kappa, N297A, V domains shown)
VH: B2 VH with K31A, M34I, I35L, I50M, I51M, S61T
VL: B2 VL with S30G, N31S, Y32S, S98Y, V101I

Kd (human ACTH 18-39): 8.8 nM
B6: Ab12.H (antibody, human IgG1, kappa, N297A, V domains shown)
VH: not shown
VL: B2 VL with S30G, N31S, Y32S, S50A, E92D
notes: humanized form of Ab12

Kd (human ACTH 18-39): 13 nM
B7: Ab10.H (antibody, human IgG1, kappa, N297A, V domains shown)
VH: B2 VH with K31S, Y32A, I50M, S61T, N101S, I102V
VL: B2 VL with Q27E, S28N, S30Y, N31R, Y32S, E92D
notes: humanized form of Ab10

Kd (human ACTH 18-39): 20 nM
B8: Ab11.H (antibody, human IgG1, kappa, N297A, V domains shown)
VH: B2 VH with K31A, M34I, I35L, I50M, I51M, S61T
VL: B2 VL with S30D, N31S, Y32S, E92D, S98Y, V101I
notes: humanized form of Ab11
